Experimental data as given in publication PMC8699718, “A structurally conserved site in AUP1 binds the E2 enzyme UBE2G2 and is essential for ER-associated degradation” (PLoS Biology, 2021).
Ends that are not written are not given here.

T1: purified UBE2G2 (UniProt P60604 1-165, ^15N-labeled for NMR)
T1 chain: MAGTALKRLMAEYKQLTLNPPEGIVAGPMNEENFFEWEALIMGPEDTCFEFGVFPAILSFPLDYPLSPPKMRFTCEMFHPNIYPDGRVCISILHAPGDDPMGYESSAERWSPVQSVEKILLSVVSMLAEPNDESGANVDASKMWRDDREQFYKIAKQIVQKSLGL

T2: UBE2G2 (Homo sapiens, UniProt P60604)
T2 construct: made in house
T2 sequence (P60604 1-165): T1 chain

T3: purified UBE2G2 (UniProt P60604 1-165, ^15N-labeled for NMR)
T3 construct: UBE2G2, purified recombinant protein used for ITC, FP, MST and NMR; also called apo-UBE2G2; ^15N-labeled UBE2G2
T3 sequence (looked up): T1 chain

B1: L386D/Y394D: AUP1 point mutant; GST-AUP1 aa 292 to 410 in vitro, full-length AUP1-FLAG in cells (protein)
chain: SPDVQLATLAQRVKEVLPHVPLGVIQRDLAKTGCVDLTITNLLEGAVAFMPEDITKGTQSLPTASASKFPSSGPVTPQPTALTFAKSSWARQESDQERKQALDEYARRRFTERRAQEAD
modifications: left off: GST, end not stated, kept
notes: AUP1 point mutant; GST-AUP1 aa 292 to 410 in vitro, full-length AUP1-FLAG in cells
B2: G2BR^gp78 peptide (aa 574 to 600, with an added N-terminal Trp) (peptide)
peptide: WSADERQRMLVQRKDELLQQARKRFLNK
notes: N-terminal Trp residue added for peptide quantification; Natural stretch with one extra N-terminal Trp added for quantification; also called gp78 G2BR; source: synthetic peptide (GenScript)
B3: G2BR^AUP1 peptide (aa 378 to 404) (peptide)
peptide: SSWARQESLQERKQALYEYARRRFTER
notes: also called AUP1 G2BR; source: synthetic peptide (GenScript)

Columns and labels:
UBE2G2 [1] = test: CHX chase: UBE2G2 turnover in HT1080 AUP1 KO cells; type: cell-based, human; conditions: GFP fusion transfected with MYC-UBE2G2, HT1080 AUP1 KO, compared with GFP-SCR
Protocol: Fig 7 G2BR^AUP1 protects UBE2G2 from degradation. (A) Indicated cells were assessed for steady state levels and turnover of endogenous UBE2G2 by CHX chase. (B) Transcript levels of endogenous UBE2G2 in AUP1 KO cells compared to HT1080 as determined by qPCR. Mean and standard deviation from three independent experiments is shown. […] (D) AUP1 KO cells were transfected with plasmids encoding MYC-UBE2G2 and GFP fusions of either a scrambled G2BR (SCR), G2BR^gp78, or G2BR^AUP1, and the turnover of UBE2G2 was assessed. (E) Relative abundance of gp78 (left panel) and AUP1 (right panel) in HT1080 cells was determined by resolving indicated amounts (in pmoles) of purified GST-gp78 (aa 429 to 611) or GST-AUP1 (aa 61 to 410) fusions alongside approximately 1 × 10^4 cellular equivalents of cell lysate and immunoblotting with gp78 or AUP1 antibodies. For each antibody, the amount of immunoreactivity in the lysate was compared to a defined quantity of a GST fusion protein of gp78 or AUP1 spanning the epitope recognized by the probing antibody. […] The data underlying this figure can be found in S1 and S8 Data. aa, amino acid; AUP1, ancient ubiquitous protein 1; CHX, cycloheximide; G2BR, UBE2G2 Binding Region; KO, knockout; qPCR, quantitative polymerase chain reaction; WT, wild type. […]

purified UBE2G2 [2] = target: T1, purified UBE2G2; test: FP
purified UBE2G2 [3] = target: T1, purified UBE2G2; test: MST
UBE2G2 [4] = target: T2, UBE2G2; test: GST pulldown of in vitro translated 35S-UBE2G2; type: binding; conditions: GST-AUP1 aa 292 to 410 on glutathione beads, ~3 pmol GST fusion, ~0.2 pmol E2, overnight 4°C, pH 7.4
Protocol: Fig 3 The AUP1–UBE2G2 interaction is required for ERAD. (A) Equimolar amounts of GST-AUP1 (aa 292 to 410) or GST were immobilized on glutathione beads and binding to the indicated in vitro translated ^35S-labeled E2s was assessed. Left panel is 5% of input used for binding. E2s are referred to by their unique alpha-numeric designation (e.g., UBE2G1 and UBE2J1). (B) HT1080 or UBE2G2 KO cells were transfected with INSIG-1-MYC and degradation assessed by CHX chase. […] (D) Cells were transfected with NHK-MYC and HA-ubiquitin and ubiquitination of NHK assessed following proteasome inhibition and IP (right panel). Left panel is 10% of total cell lysate used for IP, indicating no discernable change in total ubiquitination. (E) Levels of endogenous HRD1 were monitored by CHX chase in the indicated cell types. (F) Ubiquitination of endogenous HRD1 was assessed following IP with HRD1 antiserum. Arrow in upper panel indicates migration of unmodified HRD1. Control immunoprecipitates using rabbit serum are shown for comparison. The data underlying this figure can be found in S1 Data. aa, amino acid; AUP1, ancient ubiquitous protein 1; CHX, cycloheximide; ERAD, endoplasmic reticulum–associated degradation; IP, immunoprecipitation; KO, knockout; WT, wild type.
(§1) Fig 6 Disruption of UBE2G2:G2BR^AUP1 interaction abrogates AUP1 function in cells. (A) GST or indicated GST-AUP1 fusions (aa 292 to 410, expression shown in Coomassie-stained gel) were immobilized on glutathione beads and binding to ^35S-UBE2G2 was assessed as in Fig 3A. Mutations include 2A (R382A/Q383A), 2E (R382E/Q383E), and 5E (R382E/Q383E/K390E/R398E/R400E). (B) AUP1 KO cells were transfected with NHK-HA and forms of full-length AUP1-FLAG with the indicated point mutations from (A) and NHK degradation assessed by CHX chase. (C) Binding assay performed as in (A) with AUP1 mutants predicted to disrupt hydrophobic interactions with UBE2G2. (D) Cellular assay performed as in (B) with AUP1-FLAG mutants that disrupt interactions with UBE2G2 in vitro in (C). The data underlying this figure can be found in S1 Data. aa, amino acid; AUP1, ancient ubiquitous protein 1; CHX, cycloheximide; G2BR, UBE2G2 Binding Region; KO, knockout; WT, wild type.
In vitro translated ^35S methionine-labeled E2s were generated using the E. coli T7-S30 Extract System (Promega) and excess ^35S methionine was removed by desalting twice with Zeba Spin Desalting Columns (Thermo Scientific). GST fusion proteins were quantified by Coomassie blue staining. Moreover, 0.1 μg of GST fusion protein (approximately 3 pmol) was prebound to GS 4B (GE Healthcare) and then incubated with approximately 10^5 cpm of ^35S methionine-labeled E2 (approximately 0.2 pmol) in 200 μl Binding Buffer (25 mM Tris-HCl, pH 7.4, 50 mM NaCl, 5 mM DTT, 0.5% IGEPAL CA-630) overnight at 4°C. Beads were extensively washed in Binding Buffer, resolved on Bis/Tris polyacrylamide gels under reducing conditions, dried and visualized on a Typhoon FLA 7000 (GE Healthcare). Binding was quantified using ImageQuant Software.

[5] = test system: NHK (Null Hong Kong variant of alpha1-antitrypsin); test: CHX chase: NHK degradation in HT1080 AUP1 KO cells; type: cell-based, human; conditions: full-length or deleted AUP1-FLAG re-expressed in HT1080 AUP1 KO cells, CHX 50 μg/mL
Protocol: Fig 1 The G2BR of AUP1 is required for ERAD of NHK. (A) HT1080 or cells in which HRD1 was knocked out by CRISPR/Cas-9 (HRD1 KO) were transfected with plasmid encoding carboxyl-terminally HA-tagged NHK. Cells were treated with CHX for the indicated times to inhibit protein synthesis and NHK-HA degradation monitored by western blot. GFP and HSP60 serve as transfection efficiency and gel loading controls, respectively. (B) HT1080 or cells in which either AUP1 or gp78 was knocked out (AUP1 KO or gp78 KO) were transfected with NHK-HA and their degradation assessed. (C) AUP1 KO cells were transfected with NHK-HA and empty vector or plasmid encoding carboxyl-terminally FLAG-tagged AUP1 and NHK degradation assessed. (D) Indicated cells were transfected with plasmid encoding carboxyl-terminally MYC-tagged INSIG-1 and assessed for INSIG-1 degradation. (E) Schematic representation of AUP1 in the ER membrane and deletion mutants used in subsequent experiments. Amino acid residues are numbered spanning each domain. (F) AUP1 KO cells were transfected with NHK-HA and plasmids encoding the indicated FLAG-tagged AUP1 WT or deletion mutants and assessed for NHK degradation. (G) HEK293 (Parental) or HEK293 AUP1 KO cells were assessed for degradation of NHK-HA. (H) HEK293 AUP1 KO cells were assessed for NHK-HA degradation as in (F). Markers represent apparent molecular weight in kDa. The data underlying this figure can be found in S1 Data. aa, amino acid; AUP1, ancient ubiquitous protein 1; CHX, cycloheximide; ER, endoplasmic reticulum; ERAD, endoplasmic reticulum–associated degradation; G2BR, UBE2G2 Binding Region; KO, knockout; NHK, Null Hong Kong; WT, wild type.
as §1
Fig 8 Recruitment of UBE2G2 to the ER membrane and activation by G2BR^AUP1 is required for ERAD. (A) HT1080 or AUP1 KO cells were transfected with NHK-HA and either empty vector or MYC-UBE2G2 and NHK turnover assessed by CHX chase. (B) AUP1 KO cells were transfected with NHK-HA and GFP fusions of either a scrambled G2BR sequence (SCR) or G2BR^AUP1 and NHK turnover and levels of endogenous UBE2G2 assessed. Luciferase and β-actin served as transfection efficiency and gel loading controls, respectively. (C) AUP1 KO cells were transfected with NHK-HA, MYC-UBE2G2, and either GFP-SCR or GFP-G2BR^AUP1 and NHK turnover assessed. (D) Membrane fractionation was performed on HT1080 or AUP1 KO cells transfected with either empty vector or AUP1-FLAG and localization of UBE2G2 assessed by western blotting. Localization of β-actin (cytosol) and Calnexin (ER membrane) were used as controls for cytosolic (C) and membrane (M) fractions, respectively. (E) Membrane fractionation of AUP1 KO cells transfected with either MYC-UBE2G2 or TM-UBE2G2. (F) HT1080 cells were transfected with TM-UBE2G2 and its localization assessed by confocal microscopy. Images shown are from an optical section after deconvolution. HA-tagged UBE2J2, an ER-localized E2, serves as an ER marker. […]

purified UBE2G2 [6] = target: T3, purified UBE2G2; test: ITC; 30 μM G2BR peptide injected into 3 μM UBE2G2 in the cell, PBS pH 7.4, 25°C, one set of sites model; conditions: both partners purified

Row | Molecule | Kd (purified UBE2G2 [2]) [nM] | Kd (purified UBE2G2 [3]) [nM] | Kd (purified UBE2G2 [6]) [nM] | other results
1 | GFP-G2BR^gp78: GFP fusion of gp78 aa 574 to 600 |  |  |  | UBE2G2 degradation and steady state level (UBE2G2 [1]): protected UBE2G2 from degradation and increased the steady state level of this E2
2 | WSADERQRMLVQRKDELLQQARKRFLNK (also: FITC label, position not given here) [FITC-labeled G2BR^gp78 peptide] | 15.1 | 10 |  | 
3 | B1 |  |  |  | binding to UBE2G2 (UBE2G2 [4]): eliminated detectable binding to UBE2G2; restoration of NHK degradation [5]: failed to restore NHK degradation
4 | B2 |  |  | 2.7 | 
5 | SSWARQESLQERKQALYEYARRRFTER (also: FITC label, position not given here) [FITC-labeled G2BR^AUP1 peptide] | 7.1 | 4.3 |  | 
6 | B3 |  |  | 3.1 | 
